Measured values from patent US20250212928A1.

Biological target: bovine trypsin (bovine) (UniProt P00760)
Test: cell-based or functional assay

Sequence of UniProt P00760 (P00760 24-246): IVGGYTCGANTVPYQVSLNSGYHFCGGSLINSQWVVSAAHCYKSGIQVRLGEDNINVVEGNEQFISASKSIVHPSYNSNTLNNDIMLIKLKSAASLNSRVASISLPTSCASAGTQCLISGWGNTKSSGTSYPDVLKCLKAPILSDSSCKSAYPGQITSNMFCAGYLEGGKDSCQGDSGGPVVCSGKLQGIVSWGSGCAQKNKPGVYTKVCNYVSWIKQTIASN

Substance: native chicken ovomucoid (nOVD), from chicken egg white (from UniProt P01005 25-210)
- Trypsin inhibition activity: 13700 TIU/g
